Assay results published in US20240299584A1, “NON-CODING RNA PROTECTING AGAINST HEART FAILURE” (MEDIZINISCHE HOCHSCHULE HANNOVER, priority 2019, published 2024).

Tests used:
HL-1 cells [1] = experiment: Annexin V & 7-AAD staining (apoptosis); assay type: cell-based, mouse; settings: HL-1 cells treated with doxorubicin 0.25 μM 48 h
Experimental: (§1) HL-1 cells were cultured in Claycomb medium together with 10% FBS, norepinephrine, L-Glutamine and pencillin/streptomycin as manufacturer's protocol. 3T3 and RAW264.7 cells were cultured in DMEM with 10% FBS and pencillin/streptomycin. Neonatal rat cardiomyocytes (NRCM) were isolated from one to three-day old rat babies by using the Neonatal Heart Dissociation Kit (Miltenyi). Human iPSC derived cardiomyocytes (hiPSC-cm) were differentiated at the lab of IMTTS. All the cells were treated with 0.25 μM Doxorubicin (Sigma-Aldrich) for 48 hours. circ-Insr siRNA (Eurofins), in vitro circular RNA and overexpression plasmid were transfected with Lipofectamine 2000 (Life Technologies) in OptiMEM medium. NRCM and hipsc-CM were transduced by AAV6 (MOI: 1*10^4) for 72 hours.
FlowCellect Annexin Red kit (Millipore) was used to stain apoptotic cells as per the manufacturer instruction. Briefly, cells were seeded in 12 well plate and next day treated with 0.25 μM Doxorubicin in normal medium with 10% FBS for forty-eight hours. Then cells were trypsinized and harvested and stained with Annexin-V for 15 minutes at 37° C. in 1× assay buffer. Annexin-V stained cells were centrifuged and washed with 1× assay buffer. Next cells were incubated with 7-AAD for 5 minutes and acquired on Guava (Millipore) flow cytometer. Data was analyzed with FLOWJO software.

HL-1 cells [2] = experiment: WST-1 assay (cell viability); assay type: cell-based, mouse; settings: HL-1 cells treated with doxorubicin 0.25 μM 48 h
Experimental: as §1
WST-1 assay was performed using Cell Proliferation Reagent WST-1 (Roche) as per the manufacturer instruction. Briefly, HL-1 cells were seeded in 96 well plate and next day treated with 0.25 μM Doxorubicin in normal medium with 10% FBS for forty-eight hours. Next, 10 μL WST1 reagent was added and incubated for 1 hour followed by the absorbance measurement (450 nm) at HT Synergy (Biotek) plate reader.

HL-1 cells [3] = experiment: Analysis of mitochondrial fission (MitoTracker); assay type: cell-based, mouse; settings: doxorubicin 0.25 μM 48 h, circ-Insr by overexpression plasmid vs negative control
Experimental: Based on the results of the foregoing examples, it was reasoned that circ-Insr could interact with SSBP1. To further confirm the interaction between circ-Insr and SSBP1, siRNA mediated circ-Insr knock-down was applied in HL-1 cells. Next, RNA pulldown was performed with circ-Insr and scramble biotinylated probes. RT-qPCR confirmed that decrease of circ-Insr appeared both in input and circ-Insr pulldown group (FIG. 23A). […] Therefore, we assumed that circ-Insr is a cofactor of SSBP1 resulting in the regulation of mitochondrial function in cardiomyocytes by stabilizing mtDNA. […] Furthermore, mito-damage assay was applied to measure the changes in mitochondrial membrane potential (MMP). […]
Mitochondrial fission was analysed by staining mitochondria via MitoTracker® Deep Red FM (Cell Signalling) (Aung L H H, Li R B, Prabhakar B S, Maker A V, Li P F. Mitochondrial protein 18 (MTP18) plays a pro-apoptotic role in chemotherapy-induced gastric cancer cell apoptosis. Oncotarget. 2017; 8:56582-97). […] Mitochondria were imaged using Nikon Eclipse Ti microscope with 60× oils Objective (CFI Plan Apo Lambda 60× Oil) and images were analyzed with NIS Elements. To quantitatively analyse cells with mitochondria fission, those cells with disintegrated mitochondria were considered as fission. The total cell numbers were counted via Hochest 33342. […] More than 150 cells in 10-15 random fields were counted.

SSBP1 = target: T1, SSBP1 (Mus musculus, UniProt Q9CYR0); experiment: RNA pull-down with circINSR probe, Western blotting; assay type: binding; settings: Western blot with SSBP1-specific antibodies
T1 construct: biotinylated DNA oligo probes against endogenous or ectopically expressed circ-Insr and linear-Insr; endogenous in cells; host or cells: 3T3 cells
T1 sequence (Q9CYR0 17-152): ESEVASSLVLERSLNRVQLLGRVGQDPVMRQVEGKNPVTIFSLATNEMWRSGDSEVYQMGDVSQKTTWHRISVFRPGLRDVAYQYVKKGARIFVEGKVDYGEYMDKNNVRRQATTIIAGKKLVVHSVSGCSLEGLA
Experimental: Finally, RNA pull-down experiments were performed to identify potential protein interaction partners of circINSR. To do so, a biotin-labelled probe was designed which spans the backsplice junction (FIG. 8A). […] Mass spectrometry analysis of the pull-down lysates yielded a list of potential protein interactors. After applying several filtering parameters (relative MS peptide count >15, relative enrichment over hostgene and control probe log 2FC>2) and cat rapid analysis to calculate the interaction propensity with circINSR, Single-stranded DNA-binding protein 1, SSBP1, was identified as the most probable binding partner of circINSR (FIG. 8B). […] Moreover, co-localisation of circINSR and SSBP1 in Immuno-RNA-FISH staining, further confirmed the interaction between those two.
Cell pellets were lysed in 1× Cell lysis buffer (Cell Signaling) and isolated protein was measured by Bradford (Biorad) for quantification. […] Band intensity was calculated by Image J software.
10^6 cells were washed in ice-cold phosphate-buffered saline, lysed in 500 μl co-IP buffer, and incubated with 3 μg biotinylated DNA oligo probes against endogenous or ectopically expressed circ-Insr and linear-Insr, at room temperature for 2 h. […] The bound proteins in the pull-down materials were analyzed by western blotting and the RNA sample were analysed via qRT-PCR.

B1: circINSR: circRNA formed through backsplicing of the second exon of the insulin receptor gene transcript; overexpressed from plasmid or AAV (nucleic acid, listed as Homo sapiens)
chain: UGUGUCCCGGCAUGGAUAUCCGGAACAACCUCACUAGGUUGCAUGAGCUGGAGAAUUGCUCUGUCAUCGAAGGACACUUGCAGAUACUCUUGAUGUUCAAAACGAGGCCCGAAGAUUUCCGAGACCUCAGUUUCCCCAAACUCAUCAUGAUCACUGAUUACUUGCUGCUCUUCCGGGUCUAUGGGCUCGAGAGCCUGAAGGACCUGUUCCCCAACCUCACGGUCAUCCGGGGAUCACGACUGUUCUUUAACUACGCGCUGGUCAUCUUCGAGAUGGUUCACCUCAAGGAACUCGGCCUCUACAACCUGAUGAACAUCACCCGGGGUUCUGUCCGCAUCGAGAAGAACAAUGAGCUCUGUUACUUGGCCACUAUCGACUGGUCCCGUAUCCUGGAUUCCGUGGAGGAUAAUUACAUCGUGUUGAACAAAGAUGACAACGAGGAGUGUGGAGACAUCUGUCCGGGUACCGCGAAGGGCAAGACCAACUGCCCCGCCACCGUCAUCAACGGGCAGUUUGUCGAACGAUGUUGGACUCAUAGUCACUGCCAGAAAG
modifications: circular RNA; RNA sequence
notes: circRNA formed through backsplicing of the second exon of the insulin receptor gene transcript; overexpressed from plasmid or AAV
Question: Which “apoptotic cells (Annexin V)” value (HL-1 cells [1]) does the source give for B1 here?
Answer: Its value is “significantly lower levels of apoptosis”.

Question: And the “cell viability (WST-1)” value (HL-1 cells [2])?
Answer: Its value is “enhanced cell viability”.

Question: What about the “cell viability (WST-1)” value (HL-1 cells [2]; listed as circ-Insr) of the same molecule?
Answer: Its value is “enhance the cell survival”.

Question: And the “percentage of cells undergoing mitochondrial fission” value (HL-1 cells [3])?
Answer: The value was “significantly reduce”.

Question: And the “interaction of circINSR with SSBP1” value (SSBP1)?
Answer: Its value is “confirmed a physical interaction”.
